Assay results reported in patent US20170355757A1 (Regeneron, published 2017).
Changes are numbered by the printed parent chain. Names may count otherwise.

B1: H2aM11695N (antibody, mouse IgG2, V domains shown)
VH: QVHLVQSGAEVKKPGASVKVSCKVSGNTLTELSMHWVRQAPGKGLEWMGGFDPEDGDTIYSQKFQGRVTLTEDTSTDTAYMELSSLRSEDTAVYYCSTVGGPTSDCWGQGTLVTVSS
VL: DIQMTQSPSSLSASVGDRVTITCQASQDISNYLNWYQQKPGKAPKVLIFDASNLEPGVPSRFSGSGSGTDFTFTIISLQPEDIATYYCQQYDNLPITFGQGTRLDIK
B2: H2aM11682N (antibody, mouse IgG2, V domains shown)
VH: QEQLVQSGAEVKKPGASVKVSCKASGYTFTGYYIHWVRQAPGLGLEWMGWINPNSGGTKYAQKFQGRVTMTRDTSINTAYMELKRLKSDDSAVYYCARDAPPHDVFDIWGQGTLVTVSS
VL: DIQMTQSPSSLSASVGDRVTITCRASQGIRNDLGWYQQKPGKAPKRLIYAASSLQIGVPSRFSGSGSGTEFTLTISSLQPEDFATYYCLQHNSYPLTFGGGTKVEIK
B3: H4H12166P4 (antibody, human IgG4, V domains shown)
VH: QVQLQESGPGLVKPSETLSLTCTVSGDSVSSSYWTWIRQPPGKGLEWIGYIYYSGSSNYNPSLKSRATISVDTSKNQFSLKLSSVTAADTAVYYCAREGNVDTTMIFDYWGQGTLVTVSS
VL: AIQMTQSPSSLSASVGDRVTITCRASQGIRNDLGWYQQKPGKAPKLLIYAASSLQSGVPSRFAGRGSGTDFTLTISSLQPEDFATYYCLQDFNYPWHFGQGTKVEIK
notes: histidine-mutated CDR variant of H4H12166P; human IgG4 (S108P)
B4: H4H12166P5 (antibody, human IgG4, V domains shown)
VH: B3 VH with F107H
VL: B3 VL with H97T
notes: as for B3
B5: H4H12166P10 (antibody, human IgG4, V domains shown)
VH: B3 VH with F107H
VL: B3 VL
notes: as for B3
B6: H4H12166P9 (antibody, human IgG4, V domains shown)
VH: B3 VH with T103H
VL: B3 VL
notes: as for B3
B7: H4H12166P6 (antibody, human IgG4, V domains shown)
VH: B3 VH with T103H
VL: B3 VL with H97T
notes: as for B3
B8: H4H12166P7 (antibody, human IgG4, V domains shown)
VH: B3 VH with G99H
VL: B3 VL
notes: as for B3
B9: H4H12166P8 (antibody, human IgG4, V domains shown)
VH: B3 VH with T103H
VL: B3 VL with L89H, H97T
notes: as for B3
B10: H2aM11684N (antibody, mouse IgG2, V domains shown)
VH: QVQLQESGPGLVKPSQTLSLTCTVSGGSISSGAYHWSWIRQHPGKGLEWIGYIYYNGDTYYNPSLKSRVTISVDTSKNQFFLKVTSVTAADTAMYYCAGEKQLTAFDIWGQGTLVTVSS
VL: VIQMTQSPSSLSASVGDRVTITCRASQDINNFLNWYQQKLGKAPKLLISDASNLQTGVPSRFSGSGSGTDFTFTISSLQPEDIAAYYCQQYDHFPYTFGQGTRLENN
B11: H2aM11694N (antibody, mouse IgG2, V domains shown)
VH: EVQLVESGGGVVRPGGSLRLSCAASGFTFDDYGMTWVRQAPGKGLEWVSGINWNGDSTEYSDSVKGRFTISRDNAKNSLYLQMNSLRAEDTAFYHCARENNWNFYFDYWGQGTLVTVSS
VL: EIVMTQSPATLSVSRGERATLSCRASQSVSSNLAWYQQKLGQAPRLLIYGASTRATGIPARFSGSGSGTEFTLTISSLQSEDFAVYYCQQYNNWPWTFGQGTKVEIK

Tests used:
hC5a = target: T1, hC5a (human, UniProt P01031 678-751); experiment: cell-based or functional assay
T1 sequence (looked up): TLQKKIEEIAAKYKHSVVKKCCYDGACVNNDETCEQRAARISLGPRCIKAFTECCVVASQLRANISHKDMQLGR

human C5 [1] = target: T2, human C5 (human, UniProt P01031 19-1676); experiment: cell-based or functional assay
African green monkey C5 = African green monkey C5 (African green monkey); experiment: cell-based or functional assay
human C5 R885H-mmh = human C5 R885H-mmh (human, UniProt P01031 19-1676); experiment: cell-based or functional assay
human C5 R885C-mmh = human C5 R885C-mmh (human, UniProt P01031 19-1676); experiment: cell-based or functional assay
human C5 [2] = target: T2, human C5; experiment: cell-based or functional assay; remark: listed apart in the source
human C5 [3] = target: T2, human C5; experiment: SPR (Biacore), mAb captured, dissociation of human C5 at pH7.4 vs pH6.0, 37°C
Outline: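 Anti-C5 mAbs (human IgG4 Fc) captured on an amine-coupled mouse anti-human Fc surface; recombinant C5 dissociation followed by Biacore T200 in PBS-T (0.01M phosphate, 0.15M NaCl, 0.05% Tween-20) at pH7.4 or pH6.0. Dissociative half-life (t½) calculated from kd.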

Binder | IC50, inhibition of 500 pM hC5a in HEK293/Gα16/hC5aR1/NFAT-luc cells (hC5a) [M] | IC50, inhibition of CDC of Daudi cells, 1.66% human serum, 2 nM anti-CD20 antibody (human C5 [1]) [nM] | IC50, inhibition of CDC of Daudi cells, 1.66% African Green monkey serum, 10 nM anti-CD20 antibody (African green monkey C5) [nM] | IC50, inhibition of CDC of Daudi cells, C5 depleted human serum and 6.6 nM C5 Variant R885H, 7 nM anti-CD20 antibody (human C5 R885H-mmh) [nM] | IC50, inhibition of CDC of Daudi cells, C5 depleted human serum and 6.6 nM C5 Variant R885C, 30 nM anti-CD20 antibody (human C5 R885C-mmh) [nM] | Human AP % Max Inhibition, hemolysis assay, 5% NHS (human C5 [2]) [%] | Human AP IC50, hemolysis assay, 5% NHS (human C5 [2]) [nM] | Human CP % Max Inhibition, hemolysis assay, 5% NHS (human C5 [2]) [%] | Human CP IC50, hemolysis assay, 5% NHS (human C5 [2]) [nM] | t½ Ratio pH7.4/pH6.0 (human C5 [3]) | Max % Inhibition of CDC of Daudi cells, 1.66% African Green monkey serum, 10 nM anti-CD20 antibody (African green monkey C5) [%]
B1 | 4.2e-11 |  |  |  |  |  |  |  |  |  | 
B2 | 4.6e-10 |  |  |  |  |  |  |  |  |  | 
B3 |  | 3.5 | 7.9 | 1.5 | 0.96 | 77 | 31.7 | 98.6 | 13.2 | 7.6 | 
B4 |  | 4.9 | > 30 | 2.1 | 1.4 | 77.7 | 65.5 | 97.1 | 14.9 | 7.6 | 75
B5 |  | 12 | > 100 | 7 | 3.5 |  |  | 74 | 44.4 | 19 | 34
B6 |  | 3.9 | > 10 | 1.7 | 0.77 | 72.2 | 53.5 | 93.7 | 11.6 | 28 | 85
B7 |  | 3 | 9.9 | 1.3 | 0.79 | 82.4 | 28.4 | 98.1 | 10.3 | 8.2 | 
B8 |  | 7.3 | > 60 | 4.2 | 2.3 | 83.2 | 156 | 93.7 | 24.3 | 21 | 61
B9 |  | 4.1 | > 20 | 2.1 | 1.2 | 73.3 | 73 | 95.7 | 14.1 | 36 | 79
B10 | 3.5e-11 |  |  |  |  |  |  |  |  |  | 
B11 | 1.4e-10 |  |  |  |  |  |  |  |  |  | 
